How the values were obtained:
HeLa Kyoto [1] = test: solubility in G1/S (NP-40 vs SDS abundance) (log2 ratio); higher = more soluble; settings: cell cycle stage: G1/S
HeLa Kyoto [2] = test: solubility change mitosis vs G1/S (difference of NP-40 vs SDS log2 ratios) (log2 ratio difference); higher = more soluble in mitosis
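Wherever solubility change mitosis vs G1/S (difference of NP-40 vs SDS log2 ratios) is given: synchronized HeLa Kyoto cells (double thymidine block for G1/S, nocodazole release for mitosis), protein amounts in NP-40 versus SDS lysates quantified by mass spectrometry, three biological replicates.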
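Wherever solubility in G1/S (NP-40 vs SDS abundance) is given: HeLa Kyoto cells arrested at G1/S by double thymidine block, proteins quantified by TMT10plex mass spectrometry in mild NP-40 versus SDS extracts, three biological replicates.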

Chain of MAP4K5 (chain, as listed by the source): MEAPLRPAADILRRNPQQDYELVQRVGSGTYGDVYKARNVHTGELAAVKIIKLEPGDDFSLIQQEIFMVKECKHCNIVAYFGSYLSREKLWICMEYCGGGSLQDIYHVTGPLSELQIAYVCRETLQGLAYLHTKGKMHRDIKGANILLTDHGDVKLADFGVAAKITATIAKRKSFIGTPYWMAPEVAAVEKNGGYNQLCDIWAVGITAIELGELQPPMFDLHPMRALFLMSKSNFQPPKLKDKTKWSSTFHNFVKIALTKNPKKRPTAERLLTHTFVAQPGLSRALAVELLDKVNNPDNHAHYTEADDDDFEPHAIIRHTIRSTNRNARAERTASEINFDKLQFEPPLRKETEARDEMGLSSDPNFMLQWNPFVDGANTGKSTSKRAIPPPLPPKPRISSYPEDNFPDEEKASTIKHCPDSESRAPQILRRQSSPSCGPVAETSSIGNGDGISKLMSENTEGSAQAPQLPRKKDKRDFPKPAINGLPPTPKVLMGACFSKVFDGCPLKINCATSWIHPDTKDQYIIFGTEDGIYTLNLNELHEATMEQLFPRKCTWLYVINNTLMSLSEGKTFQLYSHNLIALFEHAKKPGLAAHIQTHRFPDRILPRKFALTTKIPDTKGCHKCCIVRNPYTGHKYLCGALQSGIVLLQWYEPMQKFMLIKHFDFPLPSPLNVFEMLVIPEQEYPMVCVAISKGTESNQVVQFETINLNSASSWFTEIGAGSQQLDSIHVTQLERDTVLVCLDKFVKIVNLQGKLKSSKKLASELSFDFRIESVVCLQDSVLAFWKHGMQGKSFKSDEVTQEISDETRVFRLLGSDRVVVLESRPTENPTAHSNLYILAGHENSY

Substance | solubility in G1/S (log2) (HeLa Kyoto [1]) | solubility change mitosis (log2) (HeLa Kyoto [2])
MKQLPAATVRLLSSSQIITSVVSVVKELIENSLDAGATSVDVKLENYGFDKIEVRDNGEGIKAVDAPVMAMKYYTSKINSHEDLENLTTYGFRGEALGSICCIAEVLITTRTAADNFSTQYVLDGSGHILSQKPSHLGQGTTVTALRLFKNLPVRKQFYSTAKKCKDEIKKIQDLLMSFGILKPDLRIVFVHNKAVIWQKSRVSDHKMALMSVLGTAVMNNMESFQYHSEESQIYLSGFLPKCDADHSFTSLSTPERSFIFINSRPVHQKDILKLIRHHYNLKCLKESTRLYPVFFLKIDVPTADVDVNLTPDKSQVLLQNKESVLIALENLMTTCYGPLPSTNSYENNKTDVSAADIVLSKTAETDVLFNKVESSGKNYSNVDTSVIPFQNDMHNDESGKNTDDCLNHQISIGDFGYGHCSSEISNIDKNTKNAFQDISMSNVSWENSQTEYSKTCFISSVKHTQSENGNKDHIDESGENEEEAGLENSSEISADEWSRGNILKNSVGENIEPVKILVPEKSLPCKVSNNNYPIPEQMNLNEDSCNKKSNVIDNKSGKVTAYDLLSNRVIKKPMSASALFVQDHRPQFLIENPKTSLEDATLQIEELWKTLSEEEKLKYEEKATKDLERYNSQMKRAIEQESQMSLKDGRKKIKPTSAWNLAQKHKLKTSLSNQPKLDELLQSQIEKRRSQNIKMVQIPFSMKNLKINFKKQNKVDLEEKDEPCLIHNLRFPDAWLMTSKTEVMLLNPYRVEEALLFKRLLENHKLPAEPLEKPIMLTESLFNGSHYLDVLYKMTADDQRYSGSTYLSDPRLTANGFKIKLIPGVSITENYLEIEGMANCLPFYGVADLKEILNAILNRNAKEVYECRPRKVISYLEGEAVRLSRQLPMYLSKEDIQDIIYRMKHQFGNEIKECVHGRPFFHHLTYLPETT [PMS1] | -0.0908 | -0.108
MVARRRKCAARDPEDRIPSPLGYAAIPIKFSEKQQASHYLYVRAHGVRQGTKSTWPQKRTLFVLNVPPYCTEESLSRLLSTCGLVQSVELQEKPDLAESPKESRSKFFHPKPVPGFQVAYVVFQKPSGVSAALALKGPLLVSTESHPVKSGIHKWISDYADSVPDPEALRVEVDTFMEAYDQKIAEEEAKAKEEEGVPDEEGWVKVTRRGRRPVLPRTEAASLRVLERERRKRSRKELLNFYAWQHRESKMEHLAQLRKKFEEDKQRIELLRAQRKFRPY [RRP7A] | -1.58 | 1.02
CCDC88C | -0.065 | -0.288
MAP4K5 | 0.172 | -0.0819
MACSLQKLFAVEEEFEDEDFLSAVEDAENRFTGSLPVNAGRLRPVSSRPQETVQAQSSRLLLLHPTAPSEALGLPDLDLCLPASSTPSADSRPSCIGAAPLRPVSTSSSWIGNQRRVTVTEVLRETARPQSSALHPLLTFESQQQQVGGFEGPEQDEFDKVLASMELEEPGMELECGVSSEAIPILPAQQREGSVLAKKARVVDLSGSCQKGPVPAIHKAGIMSAQDESLDPVIQCRTPRPPLRPGAVGHLPVPTALTVPTQQLHWEVCPQRSPVQALQPLQAARGTIQSSPQNRFPCQPFQSPSSWLSGKAHLPRPRTPNSSCSTPSRTSSGLFPRIPLQPQAPVSSIGSPVGTPKGPQGALQTPIVTNHLVQLVTAASRTPQQPTHPSTRAKTRRFPGPAGILPHQQSGRSLEDIMVSAPQTPTHGALAKFQTEIVASSQASVEEDFGRGPWLTMKSTLGLDERDPSCFLCTYSIVMVLRKQAALKQLPRNKVPNMAVMIKSLTRSTMDASVVFKDPTGEMQGTVHRLLLETCQNELKPGSVLLLKQIGVFSPSLRNHYLNVTPNNLVHIYSPDSGDGSFLKPSQPFPKDSGSFQHDVAAKPEEGFRTAQNLEAEASPEEELPEADDLDGLLSELPEDFFCGTSS [C17ORF53] | 0.384 | 0.0975
MEEFDLVKTLHKTSSSVGSDENSLHSLGLNLNTDRSSPHLSTNGVSSFSGKTRPSVIQGTVEVLTSLMQELQNSGKTDSELWKNCETRWLQLFNLVEKQCQEQIVAQQEQFHNQIQHIQEEIKNLVKLQTSSASLASCEGNSSNKQVSSESQMGFFSLSSERNESVIHYPESTEPEIQQEMSTSQPDCNVDSCSVSSGYGTFCISELNLYKSKDPKEFMEHIDVPKGQYVAPAVPAESLVDGVKNENFYIQTPEECHVSLKEDVSISPGEFEHNFLGENKVSEVYSGKTNSNAITSWAQKLKQNQPKRAHVEDGGSRSKQGNEQSKKTPIEKSDFAAATHPRAFYLSKPDETPNAWMSDSGTGLTYWKLEEKDMHHSLPETLEKTFISLSSTDVSPNQSNTSNEMKLPSLKDIYYKKQRENKQLPERNLTSASNPNHPPEVLTLDPTLHMKPKQQISGIQPHGLPNALDDRISFSPDSVLEPSMSSPSDIDSFSQASNVTSQLPGFPKYPSHTKASPVDSWKNQTFQNESRTSSTFPSVYTITSNDISVNTVDEENTVMVASASVSQSQLPGTANSVPECISLTSLEDPVILSKIRQNLKEKHARHIADLRAYYESEINSLKQKLEAKEISGVEDWKITNQILVDRCGQLDSALHEATSRVRTLENKNNLLEIEVNDLRERFSAASSASKILQERIEEMRTSSKEKDNTIIRLKSRLQDLEEAFENAYKLSDDKEAQLKQENKMFQDLLGEYESLGKEHRRVKDALNTTENKLLDAYTQISDLKRMISKLEAQVKQVEHENMLSLRHNSRIHVRPSRANTLATSDVSRRKWLIPGAEYSIFTGQPLDTQDSNVDNQLEETCSLGHRSPLEKDSSPGSSSTSLLIKKQRETSDTPIMRALKELDEGKIFKNWGTQTEKEDTSNINPRQTETSVNASRSPEKCAQQRQKRLNSASQRSSSLPPSNRKSSTPTKREIMLTPVTVAYSPKRSPKENLSPGFSHLLSKNESSPIRFDILLDDLDTVPVSTLQRTNPRKQLQFLPLDDSEEKTYSEKATDNHVNHSSCPEPVPNGVKKVSVRTAWEKNKSVSYEQCKPVSVTPQGNDFEYTAKIRTLAETERFFDELTKEKDQIEAALSRMPSPGGRITLQTRLNQEALEDRLERINRELGSVRMTLKKFHVLRTSANL [MPHOSPH9] | -0.0212 | 0.149
MSEARGEPGSGPEAGARFFCTAGRGLEPFVMREVRARLAATQVEYISGKVFFTTCSDLNMLKKLKSAERLFLLIKKQFPLIISSVSKGKIFNEMQRLINEDPGSWLNAISIWKNLLELDAKKEKLSQRDDNQLKRKVGENEIIAKKLKIEQMQKIEENRDCQLEKQIKEETLEQRDFTTKSEKFQEEEFQNDIEKAIDTHNQNDLTFRVSCRCSGTIGKAFTAQEVGKVIGIAIMKHFGWKADLRNPQLEIFIHLNDIYSVVGIPVFRVSLASRAYIKTAGLRSTIAWAMASLADIKAGAFVLDPMCGLGTILLEAAKEWPDVYYVGADVSDSQLLGTWDNLKAAGLEDKIELLKISVIELPLPSESVDIIISDIPFGKKFKLGKDIKSILQEMERVLHVGGTIVLLLSEDHHRRLTDCKESNIPFNSKDSHTDEPGIKKCLNPEEKTGAFKTASTSFEASNHKFLDRMSPFGSLVPVECYKVSLGKTDAFICKYKKSHSSGL [THUMPD2] | 0.0337 | -0.134
MKEMVGGCCVCSDERGWAENPLVYCDGHACSVAVHQACYGIVQVPTGPWFCRKCESQERAARVRCELCPHKDGALKRTDNGGWAHVVCALYIPEVQFANVLTMEPIVLQYVPHDRFNKTCYICEEQGRESKAASGACMTCNRHGCRQAFHVTCAQMAGLLCEEEVLEVDNVKYCGYCKYHFSKMKTSRHSSGGGGGGAGGGGGSMGGGGSGFISGRRSRSASPSTQQEKHPTHHERGQKKSRKDKERLKQKHKKRPESPPSILTPPVVPTADKVSSSASSSSHHEASTQETSESSRESKGKKSSSHSLSHKGKKLSSGKGVSSFTSASSSSSSSSSSSGGPFQPAVSSLQSSPDFSAFPKLEQPEEDKYSKPTAPAPSAPPSPSAPEPPKADLFEQKVVFSGFGPIMRFSTTTSSSGRARAPSPGDYKSPHVTGSGASAGTHKRMPALSATPVPADETPETGLKEKKHKASKRSRHGPGRPKGSRNKEGTGGPAAPSLPSAQLAGFTATAASPFSGGSLVSSGLGGLSSRTFGPSGSLPSLSLESPLLGAGIYTSNKDPISHSGGMLRAVCSTPLSSSLLGPPGTSALPRLSRSPFTSTLPSSSASISTTQVFSLAGSTFSLPSTHIFGTPMGAVNPLLSQAESSHTEPDLEDCSFRCRGTSPQESLSSMSPISSLPALFDQTASAPCGGGQLDPAAPGTTNMEQLLEKQGDGEAGVNIVEMLKALHALQKENQRLQEQILSLTAKKERLQILNVQLSVPFPALPAALPAANGPVPGPYGLPPQAGSSDSLSTSKSPPGKSSLGLDNSLSTSSEDPHSGCPSRSSSSLSFHSTPPPLPLLQQSPATLPLALPGAPAPLPPQPQNGLGRAPGAAGLGAMPMAEGLLGGLAGSGGLPLNGLLGGLNGAAAPNPASLSQAGGAPTLQLPGCLNSLTEQQRHLLQQQEQQLQQLQQLLASPQLTPEHQTVVYQMIQQIQQKRELQRLQMAGGSQLPMASLLAGSSTPLLSAGTPGLLPTASAPPLLPAGALVAPSLGNNTSLMAAAAAAAAVAAAGGPPVLTAQTNPFLSLSGAEGSGGGPKGGTADKGASANQEKG [MLLT6] | -1.14 | 0.828
MMQGNTCHRMSFHPGRGCPRGRGGHGARPSAPSFRPQNLRLLHPQQPPVQYQYEPPSAPSTTFSNSPAPNFLPPRPDFVPFPPPMPPSAQGPLPPCPIRPPFPNHQMRHPFPVPPCFPPMPPPMPCPNNPPVPGAPPGQGTFPFMMPPPSMPHPPPPPVMPQQVNYQYPPGYSHHNFPPPSFNSFQNNPSSFLPSANNSSSPHFRHLPPYPLPKAPSERRSPERLKHYDDHRHRDHSHGRGERHRSLDRRERGRSPDRRRQDSRYRSDYDRGRTPSRHRSYERSRERERERHRHRDNRRSPSLERSYKKEYKRSGRSYGLSVVPEPAGCTPELPGEIIKNTDSWAPPLEIVNHRSPSREKKRARWEEEKDRWSDNQSSGKDKNYTSIKEKEPEETMPDKNEEEEEELLKPVWIRCTHSENYYSSDPMDQVGDSTVVGTSRLRDLYDKFEEELGSRQEKAKAARPPWEPPKTKLDEDLESSSESECESDEDSTCSSSSDSEVFDVIAEIKRKKAHPDRLHDELWYNDPGQMNDGPLCKCSAKARRTGIRHSIYPGEEAIKPCRPMTNNAGRLFHYRITVSPPTNFLTDRPTVIEYDDHEYIFEGFSMFAHAPLTNIPLCKVIRFNIDYTIHFIEEMMPENFCVKGLELFSLFLFRDILELYDWNLKGPLFEDSPPCCPRFHFMPRFVRFLPDGGKEVLSMHQILLYLLRCSKALVPEEEIANMLQWEELEWQKYAEECKGMIVTNPGTKPSSVRIDQLDREQFNPDVITFPIIVHFGIRPAQLSYAGDPQYQKLWKSYVKLRHLLANSPKVKQTDKQKLAQREEALQKIRQKNTMRREVTVELSSQGFWKTGIRSDVCQHAMMLPVLTHHIRYHQCLMHLDKLIGYTFQDRCLLQLAMTHPSHHLNFGMNPDHARNSLSNCGIRQPKYGDRKVHHMHMRKKGINTLINIMSRLGQDDPTPSRINHNERLEFLGDAVVEFLTSVHLYYLFPSLEEGGLATYRTAIVQNQHLAMLAKKLELDRFMLYAHGPDLCRESDLRHAMANCFEALIGAVYLEGSLEEAKQLFGRLLFNDPDLREVWLNYPLHPLQLQEPNTDRQLIETSPVLQKLTEFEEAIGVIFTHVRLLARAFTLRTVGFNHLTLGHNQRMEFLGDSIMQLVATEYLFIHFPDHHEGHLTLLRSSLVNNRTQAKVAEELGMQEYAITNDKTKRPVALRTKTLADLLESFIAALYIDKDLEYVHTFMNVCFFPRLKEFILNQDWNDPKSQLQQCCLTLRTEGKEPDIPLYKTLQTVGPSHARTYTVAVYFKGERIGCGKGPSIQQAEMGAAMDALEKYNFPQMAHQKRFIERKYRQELKEMRWEREHQEREPDETEDIKK [DROSHA] | -0.744 | 0.203
